{"source": "patent US20210324359A1", "about": "“USE OF GRAM-NEGATIVE LYSIN-ANTIMICROBIAL PEPTIDE (AMP) POLYPEPTIDE CONSTRUCTS IN TREATING ENDOCARDITIS” (priority 2020, published 2021)", "key": {"[1]": {"system": "P. aeruginosa strain WC-453", "experiment": "Time-kill assay in HEPES or CAA with 25% human serum (Tables 7, 8)", "type": "cell-based, Pseudomonas aeruginosa", "settings": "lysin 10 μg/ml, WC-453; for HEPES (Log10 CFU/mL), 1 hr / HEPES (Log10 CFU/mL), 3 hr: 25 mM HEPES pH 7.4", "procedure": "Exponential phase bacteria were then pelleted and resuspended in 1/5 culture volume of 25 mM HEPES, pH 7.4 before a final adjustment to an optical density corresponding to a McFarland value of 0.5. […] All treatments were incubated at 37° C. with aeration. At time points before the addition of lysin (or buffer control) and at 1 hour and 3 hours intervals thereafter, culture samples were removed for quantitative plating on CAA agar plates."}, "[2]": {"experiment": "Isoelectric point (pI) of the polypeptides", "type": "physicochemical", "text": "By comparing the sequences and components of the various polypeptides, the effect of a particular structural modification on isoelectric point (a higher pI favors outer membrane penetration) and activity (as assessed by MIC) can be determined."}, "[3]": {"system": "carbepenam-resistant clinical isolate WC-453", "experiment": "MIC in CAA without or with 25% human serum (Table 5)", "type": "cell-based, Pseudomonas aeruginosa", "settings": "for CAA/HuS MIC: CAA supplemented with 25% human serum", "procedure": "MIC values were determined using a modification of the standard broth microdilution reference method defined by the Clinical and Laboratory Standards Institute (CLSI), CLSI. […] Methods for Dilution Antimicrobial Susceptibility Tests for Bacteria That Grow Aerobically; Approved Standard-10th Edition. Clinical and Laboratory Standards Institute, Wayne, Pa."}}}
{"molecule": "GN7: lysin obtained from a marine metagenome (SEQ ID NO: 206) (protein, GOS_4958713 hypothetical protein GOS_4958713, partial [marine metagenome]) MTPFDHALELTLGLEGGYSNHLMDRGGETMCGITEAVARRHGWEGEMRDLPIEMVRHIYKVDYWDPLMGDYLGEHNPELAEELFDTAVNCGVGFASKILQKSINVLNRNRTEDIAEDGQIGPQTLKALRDLARRDYDYLLECCKILQGNHYISLAHRDPTQRIFIRGWLTRV", "values": [{"measurement": "HEPES (Log10 CFU/mL), 1 hr", "setting": "[1]; 1 hr", "result": 7.5, "unit": "Log10 CFU/mL"}, {"measurement": "HEPES (Log10 CFU/mL), 3 hr", "setting": "[1]; 3 hr", "result": 6.2, "unit": "Log10 CFU/mL"}, {"measurement": "CAA/HuS (Log10 CFU/mL), 1 hr", "setting": "[1]; CAA + 25% human serum, 1 hr", "result": 7.0, "unit": "Log10 CFU/mL"}, {"measurement": "CAA/HuS (Log10 CFU/mL), 3 hr", "setting": "[1]; CAA + 25% human serum, 3 hr", "result": 7.0, "unit": "Log10 CFU/mL"}, {"measurement": "pI (isoelectric point)", "setting": "[2]", "result": 5.6}, {"measurement": "activity in CAA supplemented with human serum (25%)", "setting": "[3]", "result": "active"}, {"measurement": "CAA MIC", "setting": "[3]", "result": ">128"}, {"measurement": "CAA/HuS MIC", "setting": "[3]", "result": 128}]}
{"molecule": "GN11: lysin obtained from Pseudomonas putida KT2440 (SEQ ID NO: 208) (protein, listed as Pseudomonas putida) MTYNAGTKPRAETDYLVVHCSATRPSQDIGAADINRWHRAKGWRCIGYHFVIRRNGVVEEGRELDQIGAHVEGHNINSVGICMAGGVTEADINVPENNFTPEQFASLKHLLGELKEKYPSATIQGHRDFPKVAKACPSFDVKPWVAANL", "values": [{"measurement": "HEPES (Log10 CFU/mL), 1 hr", "setting": "[1]; 1 hr", "result": 6.7, "unit": "Log10 CFU/mL"}, {"measurement": "HEPES (Log10 CFU/mL), 3 hr", "setting": "[1]; 3 hr", "result": "<3.7", "unit": "Log10 CFU/mL"}, {"measurement": "pI (isoelectric point)", "setting": "[2]", "result": 7.3}, {"measurement": "activity in CAA supplemented with human serum (25%)", "setting": "[3]", "result": "active"}, {"measurement": "CAA MIC", "setting": "[3]", "result": 32}, {"measurement": "CAA/HuS MIC", "setting": "[3]", "result": 128}]}
